Laboratory results published in publication PMC10031466 (The Journal of Biological Chemistry, 2023).

Target: the molecule itself
Assay: crystal structure; microbatch crystallization of His-SUMO tagged P. shigelloides NagK (5 mg/ml), Morpheus I screen with matrix microseeding; apo structure PDB 7P7I, 2 protein monomers in the a.u.

B1: N-acetylglucosamine kinase (NagK) from Plesiomonas shigelloides (enzyme)
chain: MYYGFDIGGTKIEFGAFDADLVRVARERVATPTESYAAFLDAIVTLVNNADAEFGVKGTVGIGIPGIADVETGKLLTSNIPAAMGHTLQRDLEERLQRPVKIENDANCFALSEAWDEDLRGEPSVLGLILGTGVGGGLIFNGKVHSGRANIAGEIGHTRLPYDALKLLGMENAPIFPCGCKNSGCIDNYLSGRGFEQLYDHYFSEKLSAPEIIAHYEQGERRAVQHVERFMELLAICLANIFTCLDPHVVVLGGGLSNFELIYQELPKRLPAHLLHVAKLPKIIKARHGDAGGVRGAAFLNL
notes: N-acetylglucosamine kinase NagK of Plesiomonas shigelloides, codon-optimized nagK gene in pOPINS3C; also called PsNagK; P. shigelloides NagK; source: E. coli BL21 (DE3), purified (HisTrap, Superdex 200 size exclusion); not shown: polyhistidine, N-terminal, kept; SUMO, N-terminal, kept
With B1 the “stoichiometry N” value was 2.
